Reference: the supplement of paper PMC10567573

B1: CCDC6 (parent)
chain: TLFKKIQALQKEKETLAVNYEKEE
B2: PI4K2A (parent)
chain: FVKDPQGRIIAVFKPKNEEPYGHL

Variants of: B1
Test: protein stability index of a GFP-peptide fusion (GPS, HEK-293T) (PSI 1-6); higher = more stable
Details: c terminus: a fixed tail appended
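Note: lentivirally expressed fusions sorted by FACS into six bins by GFP to DsRed ratio, PSI derived from sequencing read proportions per bin multiplied by bin number.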

Protein stability index of substitutions, site by site:
K5: F 1.61 | S 3.47 | I 1.79 | H 2.88 | P 4.74 | W 3.67 | Y 2.15 | L 2.27 | N 3.78 | V 1.76 | M 2.22 | G 4.19
V18: H 3.62 | F 2.58 | R 2.66 | L 3.79 | W 2.03 | N 3.63 | P 3.16 | A 2.95 | D 3.43 | Q 3.21 | K 3.43 | Y 2.53 | C 2.95 | I 3.04 | S 3.31
E21: A 2.26 | R 2.36 | W 1.92 | N 2.92 | H 2.84 | P 2.72 | Q 3.1 | Y 1.78 | V 2.52 | K 2.58 | T 2.84 | F 1.62 | L 2.28 | D 3.2
K22: S 3.29 | H 3.15 | C 3.46 | G 3.39 | E 3.72 | I 2.74 | Q 3.3 | F 2.57 | L 2.89 | A 3.27 | D 3.88 | T 2.68 | R 2.94 | Y 2.64
Y20: N 3.57 | E 4.32 | D 4.09 | L 3.45 | T 3.62 | H 3.62 | K 3.68 | F 3.06 | Q 4.34 | S 3.84 | I 2.96
N19: M 2.65 | C 3.14 | Y 2.33 | S 2.99 | W 2.11 | K 2.69 | D 3.15 | E 3.64 | P 3.24 | V 2.58 | R 2.57 | T 3.34 | A 3.11 | G 3.25 | H 3.08
Q7: N 4.02 | T 3.54 | M 2.73 | F 2.3 | G 3.51 | K 3.31 | W 1.99 | S 3.65 | H 3.18 | D 4.38 | C 2.73 | P 4.7 | V 2.7 | I 2.6 | Y 2.55 | L 2.71
K4: R 3.35 | D 4.37 | F 3.44 | H 3.88 | T 4.27 | G 3.75 | S 3.82 | E 3.33 | V 3.52 | Y 2.58 | P 4.83
Q10: G 3.89 | F 2.2 | P 3.99 | W 2.65 | N 2.89 | Y 2.64 | T 3.79 | C 3.17 | H 3.3 | M 2.42 | D 4.41 | K 3.08 | V 2.91 | A 3.17 | S 3.41 | R 2.64
T15: I 3.98 | K 3.3 | P 3.56 | A 2.97 | N 3.23 | G 3.25 | F 2.06 | W 1.92 | H 2.76 | R 2.88 | Q 2.98 | S 2.91 | M 2.85
L2: S 4.83 | F 4.25 | E 5.56 | V 3.82 | G 5.25 | H 4.96 | M 4.28 | K 5.2 | T 5.1 | Y 3.74 | Q 4.91 | D 5.26 | P 5.29
L16: P 3.44 | K 2.83 | Q 4.1 | G 4.09 | N 3.6 | T 3.49 | I 2.69 | W 1.86 | Y 3.58 | A 3.32 | V 3.23 | E 4.07 | D 3.88 | H 3.91
T1: F 2.64 | D 4.01 | L 2.38 | Q 2.84 | E 3.67 | V 3.12 | W 1.88 | A 3.85 | Y 3.01 | K 3.06 | I 2.69 | M 2.51 | P 3.71
K13: H 2.81 | C 2.28 | A 2.58 | E 3.78 | R 3.49 | D 3.96 | S 3.23 | N 3.17 | G 3.73 | I 2.2 | M 2.65 | V 1.84
I6: H 4.17 | Y 3.93 | P 4.78 | E 5.39 | C 4.44 | W 3.4 | S 4.81 | V 3.85 | T 4.75 | L 3.59 | A 4.59 | K 4.92 | G 5.06 | F 3.99 | N 4.36
E23: Q 2.63 | I 2.69 | H 2.93 | V 2.27 | G 2.58 | F 1.99 | K 2.68 | N 3.14 | L 2.19 | C 2.34 | S 2.89 | T 3.02 | P 2.25
A17: H 2.95 | D 3.74 | Y 2.46 | F 2.49 | N 2.65 | V 2.89 | R 2.76 | T 3.18 | S 2.71 | K 3.41 | E 3.56 | C 3.39 | M 2.75 | P 2.84
E12: T 2.62 | W 1.81 | G 3.05 | Q 2.64 | V 2.52 | H 2.63 | Y 2.11 | M 2.49 | A 2.66 | C 2.1 | S 2.63 | R 2.75 | L 1.97
K11: I 2.85 | Q 3.21 | T 2.89 | F 2.94 | E 3.69 | P 4.1 | S 3.36 | W 2.28 | M 2.78 | Y 2.66 | L 3.05
A8: S 3.47 | N 3.75 | I 3.4 | V 4.34 | T 3.49 | P 4.25 | R 3.38 | L 3.4 | E 4.05 | G 3.72 | C 3.15 | M 2.69
L9: P 5.08 | E 4.37 | K 4.35 | D 4.67 | W 3.5 | M 2.74 | F 3.46 | I 3.57 | G 3.92 | S 4.05 | C 4.33 | T 4.6 | R 4.25 | N 4.55 | V 4.22
F3: E 5.42 | M 3.41 | Q 4.78 | L 3.08 | T 5.1 | I 3.51 | S 4.62 | N 4.59 | P 5.44 | C 3.62 | Y 3.67 | V 3.76 | D 5.28 | K 4.78 | H 4.9
E14: L 1.97 | F 2.16 | R 2.6 | Y 2.05 | D 3.25 | S 2.46 | M 2.27 | V 2.6 | N 3.15 | P 2.64
E24: W 1.91 | F 2.04 | D 3.45 | T 2.82 | R 2.1 | G 2.68 | Q 2.84 | I 2.19 | A 2.79 | Y 2.02 | P 2.53 | S 2.77 | C 3.06 | V 2.25

Variants of: B2
Test: as above
Details: c terminus: a fixed tail appended

Protein stability index: each site, then its substitutions
F1: A 2.63 | M 2.76 | C 2.77 | N 3.21 | E 3.71 | I 2.18 | H 2.44 | D 3.69 | Q 3.69 | P 4.09 | L 2.25 | K 2.8 | G 3.09
